The labels stand for the following.
T1: AP2-LT D1 (Plasmodium falciparum, UniProt Q8IAM1 2520-2577)
T1 sequence: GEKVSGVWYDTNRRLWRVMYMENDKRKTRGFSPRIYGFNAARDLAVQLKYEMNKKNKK

B1: CACACA_site8242 (dsDNA)
DNA 1: AATTTACACGTACGTGTACACACAAAAATATGTTTT
DNA 2: AAAACATATTTTTGTGTGTACACGTACGTGTAAATT
B2: CACACA_site3715 (dsDNA)
DNA 1: ATATATATATAATAAACACACAAATAGATATAACAT
DNA 2: ATGTTATATCTATTTGTGTGTTTATTATATATATAT
B3: CACACA_site4591 (dsDNA)
DNA 1: CACATACAGATATATACACACAAATATATATACTCA
DNA 2: TGAGTATATATATTTGTGTGTATATATCTGTATGTG
B4: CACACA_site3128 (dsDNA)
DNA 1: CCACTAATAAATATTACACACATATATATATATATT
DNA 2: AATATATATATATATGTGTGTAATATTTATTAGTGG
B5: CACACA_site1627 (dsDNA)
DNA 1: AAGAAAAAGATGCGCATACACACAGATGAATAACAA
DNA 2: TTGTTATTCATCTGTGTGTATGCGCATCTTTTTCTT
B6: CACACA_site1961 (dsDNA)
DNA 1: ATTTTTTAACATATCATACACACAACCACTTTTTAT
DNA 2: ATAAAAAGTGGTTGTGTGTATGATATGTTAAAAAAT
B7: CACACA_site3522 (dsDNA)
DNA 1: ATATAAAATAGACACGCACACAAAAAAAAAAAAAAA
DNA 2: TTTTTTTTTTTTTTTGTGTGCGTGTCTATTTTATAT
B8: CACACA_site2004 (dsDNA)
DNA 1: AAAATGTGCCCACGCGTACACACAAAAAAAGAAAAA
DNA 2: TTTTTCTTTTTTTGTGTGTACGCGTGGGCACATTTT
B9: CACACA_site8658 (dsDNA)
DNA 1: AACGAAAGAAAAAAAGCACACACAGTTTTGAGCAAT
DNA 2: ATTGCTCAAAACTGTGTGTGCTTTTTTTCTTTCGTT
B10: CACACA_site960 (dsDNA)
DNA 1: TGAATATTTACTTTAGCACACAATTTGTATTTGATT
DNA 2: AATCAAATACAAATTGTGTGCTAAAGTAAATATTCA
B11: CACACA_site5015 (dsDNA)
DNA 1: ACCTCATAATATTTAACACACAAAATTATCTGTATG
DNA 2: CATACAGATAATTTTGTGTGTTAAATATTATGAGGT
B12: CACACA_site1083 (dsDNA)
DNA 1: CTACACAAGCATTAAACACACAAAAGGGATACTTTG
DNA 2: CAAAGTATCCCTTTTGTGTGTTTAATGCTTGTGTAG
B13: CACACA_site8178 (dsDNA)
DNA 1: TACATATAAACAATAACACACACCTAGGTACATGGA
DNA 2: TCCATGTACCTAGGTGTGTGTTATTGTTTATATGTA
B14: CACACA_site8439 (dsDNA)
DNA 1: AGGTGAGCTCAGACTACACACACAAAGAAAAAAATA
DNA 2: TATTTTTTTCTTTGTGTGTGTAGTCTGAGCTCACCT
B15: CACACA_site2254 (dsDNA)
DNA 1: TTTTTTTTTATTATCATGCACACATTTTTTTTTTTT
DNA 2: AAAAAAAAAAAATGTGTGCATGATAATAAAAAAAAA
B16: CACACA_site3695 (dsDNA)
DNA 1: AAGCTTCATTAATATACACACATATATGCGTATATT
DNA 2: AATATACGCATATATGTGTGTATATTAATGAAGCTT
B17: CACACA_site8515 (dsDNA)
DNA 1: ATAATATATATACAAACACACAATTGCGTCCACATT
DNA 2: AATGTGGACGCAATTGTGTGTTTGTATATATATTAT
B18: CACACA_site1139 (dsDNA)
DNA 1: TCTGTTAATATTTATACACACATATATATATATATA
DNA 2: TATATATATATATATGTGTGTATAAATATTAACAGA
B19: CACACA_site2704 (dsDNA)
DNA 1: GCCATTGTACCATCCACACACATATATATATGTATA
DNA 2: TATACATATATATATGTGTGTGGATGGTACAATGGC
B20: CACACA_site699 (dsDNA)
DNA 1: ATTTATATATAATATACACACATATAATCCACATAT
DNA 2: ATATGTGGATTATATGTGTGTATATTATATATAAAT
B21: CACACA_site656 (dsDNA)
DNA 1: ACAATATCTAGATACACACACATATCTCTCAATCTA
DNA 2: TAGATTGAGAGATATGTGTGTGTATCTAGATATTGT
B22: CACACA_site262 (dsDNA)
DNA 1: ATTATGTATACATAAACACACATATATATAAAAAAA
DNA 2: TTTTTTTATATATATGTGTGTTTATGTATACATAAT
B23: CACACA_site5706 (dsDNA)
DNA 1: CTATTTTGGATGTGTACACATATATATATTTATATT
DNA 2: AATATAAATATATATATGTGTACACATCCAAAATAG
B24: CACACA_site2284 (dsDNA)
DNA 1: AAAAAAAAAAAAGGCACACAAACATATGTAGACATA
DNA 2: TATGTCTACATATGTTTGTGTGCCTTTTTTTTTTTT
B25: CACACA_site4122 (dsDNA)
DNA 1: AAAACAAACACATTTACACACATAAATAAATCAATT
DNA 2: AATTGATTTATTTATGTGTGTAAATGTGTTTGTTTT
B26: CACACA_site5230 (dsDNA)
DNA 1: ATAATATCATCAAACGCACACATACATAAATATATT
DNA 2: AATATATTTATGTATGTGTGCGTTTGATGATATTAT
B27: CACACA_site651 (dsDNA)
DNA 1: ATACATATAGGATGCACACATAATTCAAATACAATA
DNA 2: TATTGTATTTGAATTATGTGTGCATCCTATATGTAT
B28: CACACA_site1293 (dsDNA)
DNA 1: CACACCCACAAAAACACACACAAAGGTGTTCTTATA
DNA 2: TATAAGAACACCTTTGTGTGTGTTTTTGTGGGTGTG
B29: CACACA_site2529 (dsDNA)
DNA 1: ACCTAAAATAACTACACACACATAAAAAAAAAAAAA
DNA 2: TTTTTTTTTTTTTATGTGTGTGTAGTTATTTTAGGT
B30: CACACA_site5877 (dsDNA)
DNA 1: TATAGCATATCTCACACACACATAATGAATATTATA
DNA 2: TATAATATTCATTATGTGTGTGTGAGATATGCTATA

The target in this series is T1, AP2-LT D1. Briefly: gcPBM; about 25 ug protein; PBS, 1% milk, 0.2 mg/ml BSA, salmon testes DNA, 0.03% Triton X-100. The conditions noted are these: tags: N-terminal GST (pGEX-4T-1), kept; label: surface-attached array probe.
B1: the binding signal is 9.37 ln median PBM intensity, better of two orientations.
As to B2, the binding signal is 9.52 ln median PBM intensity, better of two orientations.
For B3 the value was 9.49 ln median PBM intensity, better of two orientations; for B4, 9.47 ln median PBM intensity, better of two orientations; for B5, 9.7 ln median PBM intensity, better of two orientations.
For B6 the value was 9.38 ln median PBM intensity, better of two orientations; for B7, 9.59 ln median PBM intensity, better of two orientations; for B8, 9.36 ln median PBM intensity, better of two orientations.
For B9 the value was 9.6 ln median PBM intensity, better of two orientations; for B10, 9.42 ln median PBM intensity, better of two orientations.
B11: the binding signal was 9.39 ln median PBM intensity, better of two orientations.
As for B12, the figure is 9.43 ln median PBM intensity, better of two orientations; as for B13, 9.55 ln median PBM intensity, better of two orientations.
Turning to B14, the binding signal was 9.69 ln median PBM intensity, better of two orientations.
For B15 the value was 9.48 ln median PBM intensity, better of two orientations; for B16, 9.46 ln median PBM intensity, better of two orientations; for B17, 9.67 ln median PBM intensity, better of two orientations.
For B18 the value was 9.45 ln median PBM intensity, better of two orientations; for B19, 9.64 ln median PBM intensity, better of two orientations; for B20, 9.4 ln median PBM intensity, better of two orientations.
As for B21, the figure is 9.5 ln median PBM intensity, better of two orientations.
On to B22, for which the binding signal is 9.35 ln median PBM intensity, better of two orientations.
For the molecule B23, the binding signal was 9.41 ln median PBM intensity, better of two orientations.
As to B24, the binding signal was 9.56 ln median PBM intensity, better of two orientations.
Regarding B25, the binding signal is 9.58 ln median PBM intensity, better of two orientations.
For B26 the value was 9.51 ln median PBM intensity, better of two orientations.
For B27, the binding signal was 9.54 ln median PBM intensity, better of two orientations.
For B28 the value was 9.62 ln median PBM intensity, better of two orientations; for B29, 9.65 ln median PBM intensity, better of two orientations.
For B30 the value was 9.72 ln median PBM intensity, better of two orientations.

These data come from PMC11417369, “DNA sequence and chromatin differentiate sequence-specific transcription factor binding in the human malaria parasite Plasmodium falciparum”.
